Experiment: soluble fraction after stress (log2 fold change); higher = more stays soluble; pooled small domains, quantitative proteomics
Conditions: stress: 50 degC
How it was run: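 The measure of aggregation propensity here is the base-two logarithm of the fold change in the soluble amount of each protein after stress. A higher value means more of that protein stays in solution. Stress was applied at 50°C to pooled libraries of small protein domains, read out by high-throughput quantitative proteomics.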

| Sequence | soluble fraction (log2) |
| --- | --- |
| HMDEFHLSERERQILNLLVLGHTYKHIASDLNIAYATVNKHVSNVYAKLRVQSASEAVALAIRKGL | -0.899 |
| HMKSLLDQINGIGAIRKRALLNHFGSARAVESASLDEIKSVEGVEAKVAKKIYNFFHEYKNMLR | -1.12 |
| HMTNELTEIFNSIRLTKKQKELLQSNYLSLRETYFLQGKTAFNLKFKNIAGLGKSTKKVLLEFFEESIE | -1.83 |
| HMKKTFSKSSVMEAIFRDIPNITIPNAHEVYTLIKNISVMNKRKSITSEDIEKAYDALGLTP | -0.865 |
| HMVNSADLAAKPFIDLLVSTRQQLREAKQYDLADTIRDELTNHGITIEDKPQGSEWQYEFNPNS | 0.112 |
| HMAAAQILRAAVLRVPAEETMRFVTETPELRRYLGASLGPTAAIVRPGQEQNLAAALQSHGILVEFDE | 0.0258 |
| HMSFPDTYFKGNKVIGLSYNDLKKFLNNAGYSKFDEEVEEWGEKRVSIEDDMVDFYLEDDKVVSI | -0.233 |
| HMQSKSEINELPKSIHMAFSPKNFELFIDNLKINEIDFSNWKGELNTIQERVDGQRQIWIQDPQGYWIEIN | -0.018 |
| HMTDVGLEAAKAAALKHAGLSADQVTGLTAKLDWDDGQRVYEVDFWQGSTEYEYEINADGTVRQYESEAH | 0.228 |
| HMAMTQNVDLAGRIVFNEKKEEVFNFGKHKGRSVAEVFEKEPSYYDWMLKGDFPAETKQVLTALRLRGLS | -0.0725 |
| HMSNIQLAANLQRLRKDHHFTQTQFSKKLNISRQAYSNYETGKRIPDLDIIIRIANIYHISLENLL | -0.389 |
| HMNSRQPEEEALFELLAKNPYSDEQLEEIRIAIGSGISYKDVLVIADIKNTAKQMKKLRLKFTKDTG | -0.122 |
| HMELSVTDRTRQIRHILKEKGRVEFTSLFEELTKPYVIVTFLSVLEMSKNNELMITQDKTFGSITLEMKG | -0.569 |
| HMHGEAEFLDATAVVMEKLNPGGLVKIKGEIWQAVSKDGHTIQEGEKVRVFERQGITLLVGHF | -0.171 |
| HMSKKTQKDEVVDLFLKTGNEPLHYKEISKKTGIIVHNVRRITGQNVVGKTDNPVFKRVSPGVYKLID | -0.546 |
| HMSTSEQVYTTDKVNVRREADTSSEKLGSLEKGTAISRTGTEGEWSVVNYGGVTGYIKTEFLTTEQPQ | 0.132 |
| HMDAYDEVTTLSQMVASGKNTTVAHLKHLKEYHQTDYLRQAVEWLLSNRKNVSFSVDEVMQEVHN | -0.0339 |
| HMTDFSDLSFKYNSEEKDVLNSINLKINGGEMTSLVGHSGAGKTTILNLIPRFYEKSKGDISIDGQSIY | -0.0832 |
| HMKGTSIELIVPQDIAGLRLDQVLAKLLPQWSRSRLQSWINEKHITVNGQTTTAKQKLWGNETIQIIPPI | -0.66 |
| HMQWLDSIRSRLRVGQTISYFEPRENASSSGLIIELRRKRVLVLEIATQKRWLIEYAAINVDG | -0.373 |
| HMELEAFPNPTDMFLSFTTKEKTPLAIYDINGKQVLYVEQITSSSKINVSKLSEGVYFAKTNQGTVKWVK | -1.67 |
| HMTKQMELLAQGAAKLSVDLNQRQLDQLQTYYRELVDWNQRMNLTAITQYEEVQVKHFLDSL | -0.0986 |
| HMKIKKIWFDGDYIYGMDERNNTYRQSLLWYSKLRNASAEERERYTFSTIGIHWRELDEDVSFESF | -3.14 |
| HMTIPRLPFAFAKRFGIVLDNRPSGFVAAHKEGLLPHVLLEVQRFLGDAYTLEVVSDDDFERILGQVYQT | -3.27 |
| HMDAKNNPQVMAQIRAILTAKGLSEDEVKTRLKTKNIDVDKMTDQEIIAQRPAIEAIINEMEQEKKQKMG | 0.252 |
| HMGQAELPYSEFLREVNNGQVKSVIIEGSEITGFYKTSGTSFNVIAPDDPKLVERLMAQGVEVRAQPA | 0.0327 |

| Sequence | soluble fraction (log2) |
| --- | --- |
| HMPYSPTPGSAPARLIAHLQEHGDSVNRTAIAELLQVDRKNVHNYLARAVTHGLLLRHGGGAYSLP | 0.086 |
| HMGKLYRDRYAPLEPDGARAGDRVFIISLEKEGTLERIDLPRKTATVLLGSSIRSTFPLDDLYQPRG | 0.0151 |
| HMAIGDYYINASALNVRSGEGTNYRIIGALPQGQKVQVISENSGWSKINYNGQTGYIGTRYLSKTPV | -0.00322 |
| HMSVFTDIYHQADHETKLMLIHEIKIVGDEKEFRLLKSIIDSTSNDLSKEANDALNAIKIRLALSK | -2.49 |
| HMQISSSEVLEKVVDEILSANPKSIEDYKNGKLQAAGFLMGQVMKATKGQANPAVAKELIEAKLKD | 0.419 |
| HMASQEESVATYIQDYYRNPKTGESMVSDDMVEEFYKTHPEWEDQADGSKEGMEAVLDNFNEFFEINYG | 0.0827 |
| HMQVSDTNTLEQFAKEVIEANPKAVEDYHQNPLAIGFLVGQLMKVSKGSANPQTGKEILEKLL | 0.178 |
| HMKLHPRDQERTRAISARGERLYAVTVGDLRRRIGEMLEWFGRQIESQEPMRVAKAARRITDFFDQVEAFT | -2.06 |
| HMSTRYVRTPAGQAEIQARVFKLSRPVRNLLLVINDSRSIDDWLVQVHGITADDVAMLRAEGLIAEVS | -2.4 |
| HMSIQELMNSKDLSSFKVEMLSDEDIAKYKGLLQNSGLTEAQAEQMALQRGLPSSELLKLKARLSGI | 0.128 |
| HMRGFTDFEHIEKEYLATIEKLNWPDGVTLPDKLEGEDTGTSFQVGYGDTRASNLWEYSWMK | -0.0186 |
| HMGNGDTNERIATLMQILAKQESIINQYGLENPVVSPQMYVRTLKKVVELSGFKDASSYFADIPDGWKA | -0.00533 |
| HMGGASVTDQQIRDFVSAHTDDPMAIYKAAVANGISSARLAQVTGISIADIEAFVRKNNLPSF | 0.0932 |
| HMTSRFITTEEGTLYVDADGRKVSGWQTIDGSRYYFDEHGIRQSGTIEVNGETYVLDEDGVL | 0.0747 |
| HMTSVRVPVKKEIWFWAIKESQRDLNEILARFPKMDKWINQEENPTFNQLEKVAKFLRVPFGYMFLDKPPK | -0.931 |
| HMQADPYTVLGVLRDVTDGELKREYRKLVREHHPDALIAQGVPQEFVDIANNKLAVINAAYERIAKQRGL | 0.00775 |
| HMAGWIPVEERLPDDLTNPITRDAYVYPVTVDLGDVTDIRYYSFWRGHWYNQGPETMDDLVIAWMLLPEPY | -0.0981 |
| HMEMLQRFIFLENVSSTQVESAIKELHPNLNLKRVKLSFPGADTVLLKGPKQDLELAEELIRHLDRSE | -0.0342 |
| HMTADIRFLNSRKFYIYKVEKGETLFSISQKFNIPQEEIIQFNKDINQQGLKAKTKLWVPAYSWL | -3.38 |
| HMESVTETFLTNLINRYIADKAGYIISYPSEYRIEVLYHGGQVLDYENLRKSINTYIPAHIGYKLVTI | -0.112 |
| HMNERTKIPLRKIEIGQAVYVDTLEKVGTVIDIQGKQFKVDLAGLPITVAARNLFYPLPQEAKP | -0.106 |
| HMSEQGVITAKFASIVGNQNIQLVMFPDSVYLKGQVSSEEEKKRAETVASSLIQDRKIVNLIEFE | -0.0169 |
| HMEQIPEEYKKIYSLITDIPININDIAKKSLLELREVSSKLTMLELDGKVVKLPGNMYIRGDL | 0.0726 |
| HMEFNQAVQDVNELSMQYAKSDVLWPEFEPKVLAFAKNELSQMPPNQWKFALQTFYNGLKQAA | -0.352 |
| HMDRDQNVEEGQRSLKSEMGRFGLLIANMDDLAERVNYGNAEDMYAAIGAGDLRLMQVVHAAEEMLG | 0.127 |
| HMEMPGGVMRTLSTIAYNQPVLQSKLVKVRGPRAYEDVHILRDMGLVSARSVGQTVELSTTPKFAEQF | -0.265 |

| Sequence | soluble fraction (log2) |
| --- | --- |
| HMNSLQLGSRGPTVSALQAKLNTMLVPSPRLVADGSFGPKTAQAVKAFQQMKRLVADGVVGPKTAAALGLS | -0.00877 |
| HMGDLKSLIQATMDDAGISIKPDAMDYLISHLGSDRLTTRAELDKLILYAGADDKLDLDSVVELVG | -0.0746 |
| HMRLSPTMVETLIAMLNRNAYPAYENNSRTFASLEERGLIQPDIEGNWSLTDTGHQTALKLLK | 0.0915 |
| HMDLEELSNKMNNVFESLSSDLRDIIIMSDIEGLSYEEISHKINIPIGTVRSRLHRARDLMVRVIKEN | -0.513 |
| HMNFTETENRIYEEILKNVKQHKKKTVVQIAEKVDVAPSYVIKVAKKLGYSGLNEMWYSLSGIY | -0.54 |
| HMITNSTEIEAMIDSLIKENPEQAEQYRNGNTKVVGWFVGQMMKASKGKANPQVVGDLLAQKLVG | 0.0323 |
| HMNSTEQQTERFLATLTSLGGNAGNQRLQEALGWQGSTYQRIKQHLLDEGRIRTGRGRGGSVALSEATAT | 0.143 |
| HMAPLVTLEADGNGAVKLSNLAGHSIREVAGALGGAGLSLIPVGSGTSWKQNPAPGTVLHSGDTVTVYF | 0.126 |
| HMELSAQEIGRRLRIARENADIRQDDAAQVIGMSRPTLVSIEKGVRRVRIQEIQMLARHYGVSVNALLR | -2.14 |
| HMEQETVTVPDLVGKDVVAAQAELHEMGLSGKPDGTGTTVVSQFPVAGARVLKHTNVILYTED | -0.0147 |
| HMEIEEIDYGTFLQMVEDGVVEKIELTDTQIFLTSTVDNDDKVYTTGVMPDQDLTNRLIEAGVVNFGKVV | -0.21 |
| HMLNVNDVIARNVRAARERKKLTLDGAAELTGVSRSMLAQIEKGEVNPTISVVWKIANGFKVSFTSLVEPQ | -0.498 |
| HMSSVRDNGDLELVPGDRIRHDDYGEGRVTAVTGVGSKRIAHAVFDSVGERKLLIKLSPIEKI | -0.0293 |
| HMNTNDFTIGTRVRTTKKGNGSSDGTSNTARSGIEGTITRIIPEAKYPYLVSTTVPMGWYKKDALEK | 0.0875 |
| HMSYQFKIKNNAAVEVTVSEKNNLLGSTYGDKATVAAGMEKNVTFYTDKPDVVVDTNGNFTITVHDKEIII | 0.132 |
| HMQDLPPIHLSRGMTDYTLVRSRRRTLSMELKRDGTVVVHAPLRLGVEKIDAFVAAHEAWLARARTRQAER | -2.41 |
| HMQKAQEYILVDIKGEVQTPGVYKLPVNSRVIDAIEASGGLTKKAVTTYINLSKTLKDENVIIINKKSEL | -0.2 |
| HMKASEMKKGQTIKIDGVLYVIVDFQHVKLSKGGAVYQTKLRNLAAGGIRDIRIRAEEVLEDA | -0.311 |
| HMSETEEWTVEGGQAGDRIDRHVAAMLGDDVSRSQVQQWIRAGRVTVNGRAVKPSDTVEEGDRVAVDLPEP | 0.0588 |
| HMQTKSDMVYHRVREDIVNGVFAPGERLLISAVAKQYGVSEIPVREAFRVLSQEGFLKTRPNSGFVVS | 0.0933 |
| HMHANSDVEQLMQMGIQRLNFQRYSDALLIFNQIIENFPDYAEAWNKRATLHYLLGNLDKSIADIEQTLE | -2.54 |
| HMTPAKQVSAKAERWIDQLGSSDWEKREEAAAELKKLGGAAKSALEKALKNADPEVASKAEELLEALES | 0.0311 |
| HMEDTFEYPVSVNGKLRFKIELPVSMEKDEIRNIVLNDERAKKWLATGTLTNLIVVPNRIINIVIK | -0.124 |
| HMHSLLDDIPNVGEKRKRILLTHFQSLEEIKAATVEELERLPQINRKAAESIYTFFHSQPIR | -0.0679 |
